According to article PMC3726324, “Characterization of the PAS domain in the sensor-kinase BvgS: mechanical role in signal transmission” (BMC Microbiology, 2013):
Residue numbers refer to the chain shown, from its start. In names and notes the source's numbering stands.

B1: N2C3 Asn608Ala (BvgS residues 573-720, N608A) (domain or fragment)
chain: AERALNDQLEFMRVLIDGTPNPIYVRDKEGRMLLCADAYLDTFGVTADAVLGKTIPEANVVGDPALAREMHEFLLTRVAAEREPRFEDRDVTLHGRTRHVYQWTIPYGDSLGELKGIIGGWIDITERAELLRELHDAKESADAANRAK
notes: numbering from the initiation Met of full-length BvgS; source: E. coli BL21 (DE3), pASK-IBA35+, soluble fraction; produced in very low amounts
B2: N2C3 Tyr596Ala + Asn631Ala (BvgS residues 573-720, Y596A + N631A) (domain or fragment)
chain: B1 chain with Y24A, A36N, N59A
notes: numbering from the initiation Met of full-length BvgS; source: E. coli BL21 (DE3), pASK-IBA35+, purified
B3: N2C3 His643Ala (BvgS residues 573-720, H643A) (domain or fragment)
chain: B1 chain with A36N, H71A
notes: as for B2
B4: N2C3 Cys607Ala (BvgS residues 573-720, C607A) (domain or fragment)
chain: B1 chain with C35A, A36N
notes: as for B2
B5: N2C3 Arg670Ala (BvgS residues 573-720, R670A) (domain or fragment)
chain: B1 chain with A36N, R98A
notes: as for B2
B6: N2C3 Asp695Ala (BvgS residues 573-720, D695A) (domain or fragment)
chain: B1 chain with A36N, D123A
notes: as for B2
B7: N2C3 Asn608Ser (BvgS residues 573-720, N608S) (domain or fragment)
chain: B1 chain with A36S
notes: as for B2

What was measured:
[1] = biological target: recombinant PASBvg protein N3C3 (BvgS residues 581-720) (Bordetella pertussis) (UniProt P16575); experiment: SEC; size-exclusion chromatography of the purified recombinant proteins; data not shown
[2] = biological target: recombinant PASBvg protein N2C3 (BvgS residues 573-720) (Bordetella pertussis) (UniProt P16575); experiment: native MS; ESI-Q-TOF, positive ion mode, native conditions; purified N2C3 at 10 uM in 27 mM ammonium acetate
[3] = biological target: recombinant PASBvg protein N2C3 (BvgS residues 573-720) (Bordetella pertussis) (UniProt P16575); experiment: SEC; size-exclusion chromatography of the purified recombinant proteins; data not shown
[4] = biological target: recombinant PASBvg protein N2C2 (BvgS residues 573-714) (Bordetella pertussis) (UniProt P16575); experiment: as above
[5] = biological target: recombinant PASBvg protein N3C2 (BvgS residues 581-714) (Bordetella pertussis) (UniProt P16575); experiment: as above
[6] = biological target: the molecule itself; experiment: not stated; oligomeric state of the purified or soluble N2C3 variants; method not named; not shown

Row | Molecule | stoichiometry N [6] | further results
1 | recombinant PASBvg protein N3C3 (BvgS residues 581-720) (from UniProt P16575 581-720) (domain or fragment) | – | stoichiometry N [1]: 2
2 | recombinant PASBvg protein N2C3 (BvgS residues 573-720) (from UniProt P16575 573-720) (domain or fragment) | – | stoichiometry N [2]: 2; stoichiometry N [3]: 2
3 | recombinant PASBvg protein N2C2 (BvgS residues 573-714) (from UniProt P16575 573-714) (domain or fragment) | – | stoichiometry N [4]: 2
4 | recombinant PASBvg protein N3C2 (BvgS residues 581-714) (from UniProt P16575 581-714) (domain or fragment) | – | stoichiometry N [5]: 2
5 | B1 | 2 | –
6 | B2 | 2 | –
7 | B3 | 2 | –
8 | B4 | 2 | –
9 | B5 | 2 | –
10 | B6 | 2 | –
11 | B7 | 2 | –
